Assay results reported in the supplement of paper PMC12338614.
± gives the uncertainty stated by the source.

B1: library; numbered along this chain (parent)
chain: MEVVDPQQLGMFTEGELMSVGMDTFIHRIDSTEVIYQPRRKRAKLIGKYLMGDLLGEGSYGKVKEVLDSETLCRRAVKILKKKKLRRIPNGEANVKKEIQLLRRLRHKNVIQLVDVLYNEEKQKMYMVMEYCVCGMQEMLDSVPEKRFPVCQAHGYFCQLIDGLEYLHSQGIVHKDIKPGNLLLTTGGTLKISDLGVAEALHPFAADDTCRTSQGSPAFQPPEIANGLDTFSGFKVDIWSAGVTLYNITTGLYPFEGDNIYKLFENIGKGSYAIPGDCGPPLSDLLKGMLEYEPAKRFSIRQIRQHSWFRKKHPPAEAPVPIPPSPDTKDRWRSMTVVPYLEDLHGADEDEDLFDIEDDIIYTQDFTVPGQVPEEEASHNGQRRGLPKAVCMNGTEAAQLSTKSRAEGRAPNPARKACSASSKIRRLSACKQQ

Variants of: B1
Test: STK11 functional score (HeLa growth suppression), rescaled enrichment; synonymous median = 1, nonsense median = 0 (normalised score)
Conditions: with HeLa; variant type: missense
How it was run: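 In HeLa, Bxb1 integrated POPCode codon-randomised libraries of codon-optimised STK11 at an AAVS1 landing pad; three regions were each transfected three times. Integrants, marked as BFP-negative and mCherry-positive, were FACS-sorted 4–5 days after electroporation and expanded for about two weeks before tiled gDNA amplicons were sequenced on NextSeq (~2 million reads per tile). Each functional score is a post/pre-selection log ratio corrected to wild type, rescaled to the synonymous and nonsense medians, and merged across codons and replicate transfections, with error estimated by bootstrapping.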

Variant	STK11 functional score
MEVVDPQQLGMFTEGELMSVGMDTFIHRIDSTEVIYQPRRKRAKLIGKYLMGDLLGEGSYGKVKEVLDSETLCRRAVKILKKKKLRRIPNGEANVKKEIQLLRRLRHKNVIQLVDVLYNEEKQKMYMVMEYCVCGMQEMLDSVPEKRFPVCQAHGYFCQLIDGLEYLHSQGIVHKDIKPGNLLLTTGGTLKISDLGVAEALHPFAADDTCRTSQGSPAFQPPEIANGLDTFSGFKVDIWSAGVTLYNITTGLYPFEGDNIYKLFENIGKGSYAIPGDCGPPLSDLLKGMLEYEPAKRFSIRQIRQHSWFRKKHPPAEAPVPIPPSPDTKDRWRSMTVVPYLEDLHGADEDEDLFDIEDDIIYTQDFTVSGQVPEEEASHNGQRRGLPKAVCMNGTEAAQLSTKSRAEGRAPNPARKACSASSKIRRLSACKQQ [P369S]	1.51 ± 0.22
MEVVDPQQLGMFTEGELMSVGMDTFIHRIDSTEVIYQPRRKRAKLIGKYLMGDLLGEGSYGKVKEVLDSETLCRRAVKILKKKKLRRIPNGEANVKKEIQLLRRLRHKNVIQLVDVLYNEEKQKMYMVMEYCVCGMQEMLDSVPEKRFPVCQAHGYFCQLIDGLEYLHSQGIVHKDIKPGNLLLTTGGTLKISDLGVAEALHPFAADDTCRTSQGSPAFQPPEIANGLDTFSGFKVDIWSAGVTLYNITTGLYPFEGDNIYKLFENIGKGSYAIPGDCGPPLSDLLKGMLEYEPAKRFSIRQIRQHSWFRKKHPPAEAPVPIPPSPDTKDRWRSMTVVPYLEDLHGADEDEDLFDIEDCIIYTQDFTVPGQVPEEEASHNGQRRGLPKAVCMNGTEAAQLSTKSRAEGRAPNPARKACSASSKIRRLSACKQQ [D359C]	1.14 ± 0.33
MEVVDPQQLGMFTEGELMSVGMDTFIHRIDSTEVIYQPRRKRAKLIGKYLMGDLLGEGSYGKVKEVLDSETLCRRAVKILKKKKLRRIPNGEANVKKEIQLLRRLRHKNVIQLVDVLYNEEKQKMYMVMEYCVCGMQEMLDSVPEKRFPVCQAHGYFCQLIDGLEYLHSQGIVHKDIKPGNLLLTTGGTLKISDLGVAEALHPFAADDTCRTSQGSPAFQPPEIANGLDTFSGFKVDIWSAGVTLYNITTGLYPFEGDNIYKLFENIGKGSYAIPGDCGPPLSDLLKGMLEYEPAKRFSIRQIRQHSWFRKKHPPAEAPVPIPPSPDTKDRWRSMTVVPYLEDLHMADEDEDLFDIEDDIIYTQDFTVPGQVPEEEASHNGQRRGLPKAVCMNGTEAAQLSTKSRAEGRAPNPARKACSASSKIRRLSACKQQ [G346M]	1.58 ± 0.15
MEVVDPQQLGMFTEGELMSVGMDTFIHRIDSTEVIYQPRRKRAKLIGKYLMGDLLGEGSYGKVKEVLDSETLCRRAVKILKKKKLRRIPNGEANVKKEIQLLRRLRHKNVIQLVDVLYNEEKQKMYMVMEYCVCGMQEMLDSVPEKRFPVCQAHGYFCNLIDGLEYLHSQGIVHKDIKPGNLLLTTGGTLKISDLGVAEALHPFAADDTCRTSQGSPAFQPPEIANGLDTFSGFKVDIWSAGVTLYNITTGLYPFEGDNIYKLFENIGKGSYAIPGDCGPPLSDLLKGMLEYEPAKRFSIRQIRQHSWFRKKHPPAEAPVPIPPSPDTKDRWRSMTVVPYLEDLHGADEDEDLFDIEDDIIYTQDFTVPGQVPEEEASHNGQRRGLPKAVCMNGTEAAQLSTKSRAEGRAPNPARKACSASSKIRRLSACKQQ [Q159N]	0.806 ± 0.79
MEVVDPQQLGMFTEGELMSVGMDTFIHRIDSTEVIYQPRRKRAKLIGKYLMGDLLGEGSYGKVKEVLDSETLCRRAVKILKKKKLRRIPNGEANVKKEIQLLRRLRHKNVIQLVDVLYNEEKQKMYMVMEYCVCGMQEMLDSVPEKRFPVCQAHGYFCQLIDYLEYLHSQGIVHKDIKPGNLLLTTGGTLKISDLGVAEALHPFAADDTCRTSQGSPAFQPPEIANGLDTFSGFKVDIWSAGVTLYNITTGLYPFEGDNIYKLFENIGKGSYAIPGDCGPPLSDLLKGMLEYEPAKRFSIRQIRQHSWFRKKHPPAEAPVPIPPSPDTKDRWRSMTVVPYLEDLHGADEDEDLFDIEDDIIYTQDFTVPGQVPEEEASHNGQRRGLPKAVCMNGTEAAQLSTKSRAEGRAPNPARKACSASSKIRRLSACKQQ [G163Y]	-0.0827 ± 0.069
MEVVDPQQLGMFTEGELMSVGMDTFIHRIDSTEVIYQPRRKRAKLIGKYLMGDLLGEGSYGKVKEVLDSETLCRRAVKILKKKKLRRIPNGEANVKKEIQLLRRLRHKNVIQLVDVLYNEEKQKMYMVMEYCVCGMQEMLDSVPEKRFPVCQAHGYFCQLIDGLEYLHSQGIVHKDIKPGNLLLTTGGTYKISDLGVAEALHPFAADDTCRTSQGSPAFQPPEIANGLDTFSGFKVDIWSAGVTLYNITTGLYPFEGDNIYKLFENIGKGSYAIPGDCGPPLSDLLKGMLEYEPAKRFSIRQIRQHSWFRKKHPPAEAPVPIPPSPDTKDRWRSMTVVPYLEDLHGADEDEDLFDIEDDIIYTQDFTVPGQVPEEEASHNGQRRGLPKAVCMNGTEAAQLSTKSRAEGRAPNPARKACSASSKIRRLSACKQQ [L190Y]	0.0792 ± 0.094
MEVVDPQQLGMFTEGELMSVGMDTFIHRIDSTEVIYQPRRKRAKLIGKYLMGDLLGEGSYGKVKEVLDSETLCRRAVKILKKKKLRRIPNGEANVKKEIQLLRRLRHKNVIQLVDVLYNEEKQKMYMVMEYCVCGMQEMLDSVPEKRFPVCQAHGYFCQLIDGLEYLHSQGIVHKDIKPGNLLLTTGGTLKISDLGVAEALHPFAADDTCRTSQGSPAFQPPEIANGLDTFSGFKVDIWSAGVTLYNITTGLYPFEGDNIYKLFENIGKGSYAIPGDCGPPLSDLLKGMLEYEPAKRFSIRQIRQHGWFRKKHPPAEAPVPIPPSPDTKDRWRSMTVVPYLEDLHGADEDEDLFDIEDDIIYTQDFTVPGQVPEEEASHNGQRRGLPKAVCMNGTEAAQLSTKSRAEGRAPNPARKACSASSKIRRLSACKQQ [S307G]	0.664 ± 0.35
